# System: LN-PSA cells
# Experiment: MTT assay with PSA proteinase inhibitor, LN-PSA cells
# Type: cell-based, human
# Conditions: 1000 ng/ml, vs vehicle 1x PBS
# Procedure: Cells of stable transfected LNCaP, CWR22rv1, PC-3 and Du145 sublines were seeded in 24-well tissue culture plates at a density of 5000 cells/well in media containing 10% CD-FBS with 1 nM DHT. At the indicated time points, the medium was replenished and determined cell proliferation by MTT [3-(4,5-dimethylthiazol-2-yl)-2,5-diphenyltetrazolium bromide assay. Serum-free medium containing MTT (0.5 mg/ml, Sigma) was added into each well and after 4 h incubation at 37° C., cellular formazan product was dissolved with acidic isopropanol, and the absorbance at OD595 was measured by spectrophotometry (Beckman Du640B). 6 replicate wells were used for each sample at each time point. a-Antichymotrypsin (MP Biomedicals, Inc) at a concentration of 1000 ng/ml was used in the MTT assay as a PSA proteinase inhibitor to treat the LNCaP cell sublines. LN-PSA, LN-siPSA cells were grown in 100-mm dishes. The cells were digested by trypsin-EDTA, harvested as many as 1×10^6 cells, and fixed them in 70% ethanol at 4° C. After 12 h, cells were centrifuged (1000 g, 7 min, 4° C.), and resuspended in PBS containing 0.05 mg/ml RNase A (Sigma), and then incubated at room temperature for 30min. After washing, the cells were stained with […] propidium iodide, filtered through a […], and analyzed 10,000 cells by flow cytometry (FACSCalibur, BD Company) with MODFIT software (Verity Software House, Inc).
molecule,measurement,setting,value
"α1-antichymotrypsin: PSA protease inhibitor (MP Biomedicals), used at 1000 ng/ml (protein, UniProt P01011 24-423, looked up) Alpha-1-antichymotrypsin: HPNSPLDEENLTQENQDRGTHVDLGLASANVDFAFSLYKQLVLKAPDKNVIFSPLSISTALAFLSLGAHNTTLTEILKGLKFNLTETSEAEIHQSFQHLLRTLNQSSDELQLSMGNAMFVKEQLSLLDRFTEDAKRLYGSEAFATDFQDSAAAKKLINDYVKNGTRGKITDLIKDLDSQTMMVLVNYIFFKAKWEMPFDPQDTHQSRFYLSKKKWVMVPMMSLHHLTIPYFRDEELSCTVVELKYTGNASALFILPDQDKMEEVEAMLLPETLKRWRDSLEFREIGELYLPKFSISRDYNLNDILLQLGIEEAFTSKADLSGITGARNLAVSQVVHKAVLDVFEEGTEASAATAVKITLLSALVETRTIVRFNRPFLMIIVPTDTQNIFFMSKVTNPKQA",PSA-induced cell growth (MTT),,limited influence
same,PSA-induced cell growth (MTT),listed as ACT,not significantly changed
